# Measured values reported in patent publication US20220017622A1 (Pfizer, published 2022).
# Several values for one entry are separate records, joined by “and”; a condition that tells them apart may be missing. Identical values can stand only once.
# T1: human B7-H4 extracellular domain (human, UniProt Q7Z7D3 29-258)
# T1 construct: For SPR it says only human B7-H4 ECD; also called Hu B7-H4 ECD; huB7-H4 ECD
# T1 sequence: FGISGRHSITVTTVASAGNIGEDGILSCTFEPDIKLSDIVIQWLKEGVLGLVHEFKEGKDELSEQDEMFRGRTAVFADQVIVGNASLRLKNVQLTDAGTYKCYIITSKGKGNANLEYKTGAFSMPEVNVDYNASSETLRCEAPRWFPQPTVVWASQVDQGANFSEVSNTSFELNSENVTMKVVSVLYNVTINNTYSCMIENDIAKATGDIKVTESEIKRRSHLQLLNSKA
# Target: T1, human B7-H4 extracellular domain
# Assay: SPR Biacore 8K 25 C; mAb captured on anti-human Fc, huB7-H4 ECD analyte, 1:1 fit;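 also: antibodies tested as IgG1, running buffer HBS-EP+ at pH 7.4, rate constants and affinity from a 1:1 Langmuir model fit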
# 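For IC50 in this document: tested antibody premixed 1:1 with biotinylated parental antibody, 2 h at room temperature on coated ECD, bound biotin detected via streptavidin-HRP, absorbance read at 450 nm.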
Kd [nM],koff [s⁻¹],kon [M⁻¹ s⁻¹],Binder
1.85,0.000414,225000,"B7-H4 antibody 0049 (antibody, human IgG1, kappa, V domains shown, also called 13F4) VH: EVQLLESGGGLVQPGGSLRLSCAASGFTFSSYAMSWVRQAPGKGLEWVSAISGSGGSTYYADSVKGRFTISRDNSKNTLFLHMNSLRAEDTAVYYCARDIQWFGESVFDYWGQGTLVTVSS VL: DIQMTQSPSTLSASVGDRVTITCRASQSISSWLAWYQQKPGKAPKLLIYKASSLESGVPSRFSGNGSGTEFTLTISSLQPDDLATYYCQYYNSYSRTFGQGTKVEIKR"
0.62,0.000353,574000,"B7-H4 antibody 0056 (antibody, human IgG1, kappa, V domains shown, also called 33G4) VH: EVQLLESGGGLVQPGGSLRLSCAASGFTFSTYAMNWVRQAPGKGLAWVSAISGSGGSTYYADSVKGRFTISRDDSKNTLYLQMNSLRAEDTAVYYCAKVDVVARYYGMDVWGQGTTVTVSS VL: DIQMTQSPSTLSASVGDRVTITCRASQSISGWLAWYQQKPGKAPKLLIYEASSLESGVPSRFSGSGSGTEFTLTISSLQPDDFATYYCQQYKSYSWTFGQGTKVEIKR"
0.57,0.000464,814000,"B7-H4 antibody 0051 (antibody, human IgG1, kappa, V domains shown, also called 27C12) VH: EVQLLESGGGLVQPGGSLRLSCAASGFTFSSYAMSWVRQAPGKGLEWVSSISGNGGSTYYADSVKGRFTISRDNSKNTLSLQMNSLRAEDTAVYYCAKVGWRTGDYWGQGTLVTVSS VL: DIQLTQSPSTLSASVGDRVTITCRASQSISSWLAWYQQKAGKAPKLLIYKASDLESGVPSRFSGSGSGIEFTLTISSLQPDDFATYYCQQYNSYSWTFGQGTKVEIKR"
1.9,0.000725,382000,"B7-H4 antibody 0055 (antibody, human IgG1, kappa, V domains shown, also called 32F3) VH: QVQLQESGPGLVKPSETLSLTCTVSGGSISSSSYYWGWIRQPPGKGLEWIGTIYFSGNTYYNPSLKSRVTISVDTSKSQLSLKLNSVTAADTAVYYCARLRVTMVRGVIIGVFDYWGQGTLVTVSS VL: not shown"
1.35,0.00075,558000,"B7-H4 antibody 0060 (antibody, human IgG1, kappa, V domains shown, also called 42E2) VH: QVQLQESGPGLVKPSETLSLTCTVSTGSISSSSYYWGWIRQPPGKGLEWIGTIYFSGSTYYNPSLKSRVTISVDTSKNQFSLKLTSVTAADTAVYYCARLRVTMVRGVIIGVFDFWGQGTLVTVSS VL: not shown"
7.83,0.0011,140000,"B7-H4 antibody 0052 (antibody, human IgG1, kappa, V domains shown, also called 28D10) VH: QVQLQQWGAGLLKPSETLSLTCAVYGGSFSGYYWNWIRQPPGKGLEWIGEINHSGSTKYNPSLKSRVTISGDTSKNQFSLKLNSVTAADTAVYYCVRGLYNWNVDSWGQGTLVTVSS VL: DIQMTQSPSSLSASVGDRVTITCRASQGIRNDLGWYQQKPGKAPKRLIYVASSLQSGVPSRFSGSGSGTEFTLTISSLQPEDFATYYCLQHNSYPYTFGQGTKLEIKR"
0.83,0.000619,745000,"B7-H4 antibody 0048 (antibody, human IgG1, kappa, V domains shown, also called 11F12) VH: EVQLLESGGGLVQPGGSLRLSCAASGFTFSSYAMKWVRQAPGKGLEWVSTTSGSGGTTYYADSVKGRFTISRDNSKNTLYLQMNSLRAEDTAVYYCAKAGWAAAFDYWGQGTLVTVSS VL: DIQLTQFPSTLSASVGDRITITCRASQSISDWLAWYQQKPGKAPKLLIYKASSLESGVPSRFSGSGSGTEFTLTISSLQPDDFATYYCQQCNSYWTFGQGTKVEIKR"
0.68,0.000389,568000,"B7-H4 antibody 0059 (antibody, human IgG1, kappa, V domains shown, also called 47A1) VH: EVQLLESGGGLVQPGGSLRLSCAASGFTFSSYALSWVRQAPGKGLEWVSTINVGGVDTNYAGSVKGRFTISRDNPKNTLCLQMNSLRAEDTAVYHCAKARITMVRGVIIPLFDYWGQGTLVTVAS VL: not shown"
0.74,0.000321,434000,"B7-H4 antibody 0053 (antibody, human IgG1, kappa, V domains shown, also called 29G6) VH: QVQLQQWGAGLLKPSETLSLTCAVYGGPFSGYFWSWIRQPPGKGLEWIGEINHSGNTNYNPSLKSRVTISVDTSKNQFSLKLSSVTAADTAVYYCARAGGDYGFYYYYGMDVWGQGTTVTVSS VL: DIQLTQSPSTLSASVGDRVTITCRASQSISSWLAWYQQKPGKAPELLVYKASRLESGVPSRFSGSGSGTEFTLTISSLQPDDFATYYCQQYNSYFGGGTKVEIKR"
0.84,0.000572,678000,"B7-H4 antibody 0061 (antibody, human IgG1, kappa, V domains shown, also called 46E10) VH: QVQLQQWGAGLLKPSETLSLTCAVYGGSFSGYFWSWIRQPPGKGLEWIGEFNHSGGTNSNPSLKSRVTMSVDTSKNQFSLKLSSVTAADTAVYFCARAGGDYGFYYYYGLDVWGQGTTVTVSS VL: DIQLTQSPSTLSASVGDRVTITCRASQSISSWLAWYQQKPGKAPELLVYKASRLESGVPSRFSGSGSGTEFTLTISSLQPDDFATYYCQQYNSYFGGGTKVEIKR"

# Target: T1, human B7-H4 extracellular domain
# Assay: competition ELISA on coated huB7-H4 ECD; competitor biotinylated 0052 (by series, not given)
row,IC50,Binder
1,1.4 nM,"B7-H4 antibody 1080 (antibody, human IgG1, kappa, V domains shown) VH: EVQLVESGGGLVQPGGSLRLSCAVSGGSFSGYYWNWIRQPPGKGLEWIGEINHSGSATYNPSLKSRVTISVDTAKNSLYLQMNSLRAEDTAVYYCARGLYNWNVDHWGQGTLVTVSS VL: DIQMTQSPSSLSASVGDRVTITCRASQGIRNDLGWYQQKPGKAPKRLIYAASSLQSGVPSRFSGSGSGTDFTLTISSLQPEDFATYYCLQHNAYPRTFGGGTKVEIKR"
2,13.6 nM and 17.8 nM,"B7-H4 antibody 0380 (antibody, human IgG1, kappa, V domains shown) VH: EVQLVESGGGLVQPGGSLRLSCAVSGGSFSGYYWNWVRQAPGKGLEWIGEINHSGSATYNPSLKSRFTISVDTAKNSFYLQMNSLRAEDTAVYYCARELYNWNVDHWGQGTLVTVSS VL: DIQMTQSPSSLSASVGDRVTITCRASQGIRNDLGWYQQKPGKAPKRLIYAASSLQSGVPSRFSGSGSGTEFTLTISSLQPEDFATYYCLQHNSYPRTFGGGTKVEIKR"
3,17.6 nM,"B7-H4 antibody 0350 (antibody, human IgG1, kappa, V domains shown) VH: EVQLVESGGGLVQPGGSLRLSCAVSGGSFSGYYWSWVRQPPGKGLEWIGEINHSGSATYNPSLKSRFTISVDTAKNSFYLQMNSLRAEDTAVYYCARGLYNWNVDHWGQGTLVTVSS VL: DIQMTQSPSSLSASVGDRVTITCRASQGIRNDLGWYQQKPGKAPKRLIYAASSLQSGVPSRFSGSGSGTEFTLTISSLQPEDFATYYCLQHNSYPRTFGGGTKVEIKR"
4,21.9 nM,"B7-H4 antibody 0538 (antibody, human IgG1, kappa, V domains shown) VH: EVQLVESGGGLVQPGGSLRLSCAASGGSFSGYYWNWIRQPPGKGLEWIGEIDHQGSTKYNPSLKSRVTISVDTAKNSLYLQMNSLRAEDTAVYYCARGLYNWNVDHWGQGTLVTVSS VL: DIQMTQSPSSLSASVGDRVTITCRASQGIRNDLGWYQQKPGKAPKRLIYAASSLQSGVPSRFSGSGSGTDFTLTISSLQPEDFATYYCLQHNAYPRTFGGGTKVEIKR"
5,9.13 nM and 10.8 nM,"B7-H4 antibody 0364 (antibody, human IgG1, kappa, V domains shown) VH: EVQLVESGGGLVQPGGSLRLSCAVSGGSFSGYYWNWVRQAPGKGLEWIGEINHSGSATYNPSLKSRVTISVDTAKNSFYLQMNSLRAEDTAVYYCARGLYNWNVDHWGQGTLVTVSS VL: DIQMTQSPSSLSASVGDRVTITCRASQGIRNDLGWYQQKPGKAPKRLIYAASSLQSGVPSRFSGSGSGTEFTLTISSLQPEDFATYYCLQHNSYPRTFGGGTKVEIKR"
6,8.49 nM and 8.3 nM,"B7-H4 antibody 0368 (antibody, human IgG1, kappa, V domains shown) VH: EVQLVESGGGLVQPGGSLRLSCAASGGSFSGYYWNWVRQAPGKGLEWVAEINHSGSATYNPSLKSRFTISRDTAKNSLYLQMNSLRAEDTAVYYCARGLYNWNVDHWGQGTLVTVSS VL: DIQMTQSPSSLSASVGDRVTITCRASQGIRNDLGWYQQKPGKAPKRLIYAASSLQSGVPSRFSGSGSGTEFTLTISSLQPEDFATYYCLQHNSYPRTFGGGTKVEIKR"
7,15.8 nM and 12.9 nM,"B7-H4 antibody 0352 (antibody, human IgG1, kappa, V domains shown) VH: EVQLVESGGGLVQPGGSLRLSCAVSGGSFSGYYWNWIRQPPGKGLEWIGEINHSGSATYNPSLKSRFTISVDTAKNSFYLQMNSLRAEDTAVYYCARGLYNWNVDHWGQGTLVTVSS VL: DIQMTQSPSSLSASVGDRVTITCRASQGIRNDLGWYQQKPGKAPKRLIYAASSLQSGVPSRFSGSGSGTEFTLTISSLQPEDFATYYCLQHNSYPRTFGGGTKVEIKR"
8,13.5 nM and 17.1 nM,"B7-H4 antibody 0362 (antibody, human IgG1, kappa, V domains shown) VH: EVQLVESGGGLVQPGGSLRLSCAVSGGSFSGYYWNWVRQAPGKGLEWIGEIDHQGSTKYNPSLKSRFTISVDTAKNSFYLQMNSLRAEDTAVYYCARGLYNWNVDHWGQGTLVTVSS VL: DIQMTQSPSSLSASVGDRVTITCRASQGIRNDLGWYQQKPGKAPKRLIYAASSLQSGVPSRFSGSGSGTEFTLTISSLQPEDFATYYCLQHNSYPRTFGGGTKVEIKR"
9,33.8 nM,"B7-H4 antibody 0542 (antibody, human IgG1, kappa, V domains shown) VH: EVQLVESGGGLVQPGGSLRLSCAASGGSFSGYYWNWIRQPPGKGLEWIGEIDHQGSTKYNPSLKSRVTISVDTAKNSLYLQMNSLRAEDTAVYYCARELYNWNVDHWGQGTLVTVSS VL: DIQMTQSPSSLSASVGDRVTITCRASQGIRNDLGWYQQKPGKAPKRLIYAASSLQSGVPSRFSGSGSGTDFTLTISSLQPEDFATYYCLQHSSYPRTFGGGTKVEIKR"
10,12.4 nM,"B7-H4 antibody 0376 (antibody, human IgG1, kappa, V domains shown) VH: EVQLVESGGGLVQPGGSLRLSCAVSGGSFSGYYWNWVRQAPGKGLEWIGEINHSGSATYVDSVKGRFTISRDTAKNSFYLQMNSLRAEDTAVYYCARGLYNWNVDHWGQGTLVTVSS VL: DIQMTQSPSSLSASVGDRVTITCRASQGIRNDLGWYQQKPGKAPKRLIYAASSLQSGVPSRFSGSGSGTEFTLTISSLQPEDFATYYCLQHNSYPRTFGGGTKVEIKR"
11,30.1 nM,"B7-H4 antibody 0540 (antibody, human IgG1, kappa, V domains shown) VH: EVQLVESGGGLVQPGGSLRLSCAVSGGSFSGYYWNWIRQPPGKGLEWIGEIDHQGSTKYNPSLKSRVTISVDTAKNSLYLQMNSLRAEDTAVYYCARELYNWNVDHWGQGTLVTVSS VL: DIQMTQSPSSLSASVGDRVTITCRASQGIRNDLGWYQQKPGKAPKRLIYAASSLQSGVPSRFSGSGSGTDFTLTISSLQPEDFATYYCLQHNAYPRTFGGGTKVEIKR"
